Measured values from the supplement of paper PMC12042874.
± gives the uncertainty stated by the source.

Assay: amyloid nucleation score (Sup35N fusion, yeast selection) (log enrichment); library NNK2; higher = more nucleation; inactive = no reads after selection
How it was run: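 Peptides of 20 random codons, each fused to Sup35N, were expressed in psi-negative yeast. Cells were induced with 100 μM copper sulfate for 24 hours and grown 7 days at 30°C on medium lacking adenine and uracil, and plasmid inserts before and after selection were Illumina-sequenced. Nucleation scores are DiMSum log enrichments of output over input reads, centred on the mode score of non-aggregating sequences, and sequences under 100 input reads were excluded.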

Substance | amyloid nucleation score
SSGGMVKHYPKIQLSSVWVF | 0.238 ± 0.64
TIGPKFLLIIKMRCLWMNEE | 0.105 ± 1.1
TYRLDSWITGSRLV | -0.555 ± 0.76
MFLVSFRCVSYSAWYLTYMQ | -0.338 ± 0.63
ARSTAFMPEPSFLV | 0.054 ± 0.56
YGSKTRRVWGLRGYRDEGYR | -0.413 ± 0.74
THLHCCYRETISDP | 0.175 ± 0.33
TYIFSHTAGYNFG | inactive
HTGLSVGKFKVRHGNVHRVF | -0.181 ± 0.34
GCDEEDCCCLRFRGC | 6.513 ± 0.031
YLSLYGNGC | -0.627 ± 1.1
NFEHVASLIFGLLILDSQSL | -1.43 ± 0.49
ESSIRHRGMERRCRLHKRH | 0.546 ± 0.39
KWIRFWVKDAFRVGRCHIWG | 0.038 ± 0.5
RFDSWVAWGFG | 1.74 ± 0.15
MFSFCRGSANSRLAQKDIVN | 0.023 ± 0.3
QIFKDSWSNIFRVYSCAVGM | 4.33 ± 0.062
IEGFRNDFLYVKISVGGAVV | inactive
ARVCPCETTSTTVVA | 1.23 ± 0.48
IMCCTRLLNSFSAITIVHIA | -0.03 ± 0.43
RLGSSEACPICLDHFGFIMF | -1.26 ± 0.54
YWNEP | 0.15 ± 0.37
TGWTFWGGCRWM | 4.57 ± 0.12
TNWQGQRIRYAKDLGGPCGL | 0.506 ± 0.35
IVPRIKSAMLLKF | -0.301 ± 0.21
LTAWIC | 0.285 ± 1

Substance | amyloid nucleation score
LLCGRYGMECFTRA | inactive
QWYPNFHFHAISLCKYTGQG | 0.017 ± 0.19
YIWRLLLLRGCTVNFMSCNM | 5.62 ± 0.067
SREYLSRFVTFYLMYFYAKS | -0.516 ± 0.64
RSGVESHRRKVPLVPMGVTV | 1.16 ± 0.36
HVHKL | -0.403 ± 0.39
QVFAHIAVSYGLLFFLHWEC | -0.331 ± 1
RWIYLGYSLCLDVLLYCIEL | 4.07 ± 0.06
FSGTF | -1.07 ± 0.76
IGLVVFSAL | 2.56 ± 0.11
RGCSESWLSW | 0.079 ± 0.34
GLGAFSSP | 0.247 ± 0.46
RGKDEDMLKSECHYVL | -0.883 ± 0.76
LAGSVTIPLPTCYSIMTSRP | 0.233 ± 0.77
LNVTSLLIVRLRCVFLHPTD | 2.15 ± 0.44
TIFFRCHWIRGLLVHLMF | inactive
VVIFCVVFWV | 0.129 ± 0.76
FSGDGCRDSA | 0.307 ± 0.56
YNKNSKFLGRFDCSLFI | -1.04 ± 1.1
LLLLTHYEAITR | 0.305 ± 0.43
RVDKGVEFSSTSGSVRNFSL | -0.83 ± 1.1
AYGQKNVSSRSLTFV | 3.41 ± 0.15
DSLMQVNWN | 1.01 ± 0.36
DVFYRSVPMQVGWQVMWACD | 0.703 ± 0.15
HWGLNTWPYSDFGVTLLRGH | -0.477 ± 0.76
LFSYQYCVVRMVLFIRL | -0.588 ± 0.53

Substance | amyloid nucleation score
IFMRNRV | -0.524 ± 0.64
DLTHWSANSTCSSCVEFHLR | 3.99 ± 0.086
RLPTGSQNY | -0.281 ± 0.38
ELILFITYTCIFWADCGRLY | -2.12 ± 1.1
SSLRKRRLVVRNVAKSRMFL | 2.14 ± 0.31
VSAKNIMSSAAER | 0.451 ± 0.35
GYCLMTFLISTCYG | 5.166 ± 0.031
IRWAFWSRYGSWAKLSLRIV | -0.995 ± 0.56
VICRGVHSHSLGWGSCITCS | -0.98 ± 0.48
FINGGSCYAFFCKYGYRMHR | -0.109 ± 0.37
CLNWRSLSS | 3.34 ± 0.067
PRRMNRGYQNDYFISTVFSV | -0.711 ± 0.64
TSVVFWWGKGGKVGEPNEAG | 0.147 ± 1.1
LNCFYEPTSGSKLYTLRPAF | -0.107 ± 1
PHLFRPGTADVLYHYMTMRK | 0.628 ± 0.37
FFFMSDLYKSLSSAYDLGSI | inactive
GKGSRFRYSIGG | 0.943 ± 0.47
FYLISWKWVKHVGIFA | -0.618 ± 1.1
ISKEMGNYNFGLSKYAKR | -1.06 ± 0.3
PDVMLCIFYIDFMQGFFDLY | 5.08 ± 0.07
LDWGCILVQ | 0.012 ± 0.43
LWVIISCSDYLNWLNRGMNE | 5.45 ± 0.056
GYNQEYRLSTMKAMLGRLLV | inactive
SRKGVTLLVLNNSLTHRSCN | 3.72 ± 0.049
SGSIKHMNLVMV | -0.027 ± 0.2
YVTPSNLARNKIQRFMASLI | 0.436 ± 0.8

Substance | amyloid nucleation score
MYIGELIAPVCCLRSQFTPC | 5.18 ± 0.075
EYHSSWVISAPVYLQSATAW | 5.23 ± 0.085
IQHTVMWNALLLALAVSRLR | 0.667 ± 0.21
PIDFVLCSNNSSSWPVHKQN | 2.36 ± 0.11
SFCGLTVILGRSSSAWGLPT | 6.959 ± 0.053
SVLNGAAGMYWCW | 0.107 ± 0.46
TAMEVPHRIWLR | -0.305 ± 1.1
LYNYSSFLNTVGVGYEIFMR | -0.105 ± 1.1
VPRLILSIYFIICLTTQEAV | -0.24 ± 0.65
SCDWRAGPSSATRTR | 1.24 ± 0.35
PVYMFKYLVTLIWPHSKATF | 0.102 ± 0.34
YDVRMSKMFAYTLSSEC | 0.203 ± 0.53
PAWAHVSLRLMLFYWGYLFY | inactive
PSWAELRVAYLLCGSGQPG | 1.43 ± 0.19
FYNNPDGDRVDVRSCCYYMW | 7.19 ± 0.073
TRNYLFTTSNWYVSSKMSNS | -0.632 ± 0.56
SEAEVSFWAFPEEYIEHKYM | inactive
SNQMWLMVCRVE | 0.112 ± 0.19
YFRSYLLHTLLG | 0.479 ± 0.45
YSIVNTNAGMTTRAWVTPTW | 1.38 ± 0.21
VKSMFLYTASSADPERGVYG | -1.27 ± 1.1
CSFNKTALIAFNSNGGEYEH | -2.66 ± 0.75
KCLWWFWLQDRKKRVMCLTG | 0.771 ± 0.43
SMGLDFPWMSRDTGNFGTEI | -0.337 ± 0.4
NRVTCYSMDRNIM | -0.776 ± 1.1
NVDQEMDYDYERIGFLPIGT | -0.204 ± 0.33

Substance | amyloid nucleation score
RGRCPCEVFNGSYVFVTHGD | inactive
FTWHLLYTNDCPLVIYMMEL | -0.403 ± 0.74
LMYVGFTRMRKKINRKVYLV | 3.19 ± 0.1
LQVTPIIPYCVSELYMYGGM | -0.097 ± 0.79
LVDHLGFMRMSMAGSWWVEG | 0.42 ± 0.8
VFDVHIYRPSVP | 5.96 ± 0.069
LRNLS | -0.919 ± 1
ILDCLRVRESDHVSGRNRVC | 0.509 ± 0.37
SSIGYVDYAEFEAGFFIYIV | -0.823 ± 0.44
HVHCEIGFVRLSTRVGRWFG | 6.64 ± 0.079
YYLSNSWVLYFCFGIFVTSQ | 1.88 ± 0.094
SREIWRLYDI | -0.124 ± 0.8
VFLKQVEPEGGQYETFLVVV | -0.19 ± 1.1
MLLLGTTSQDHHMTLGKYAG | 0.808 ± 0.74
IPLLCKFCSRGSRAKIYLMD | 1.75 ± 0.095
EKVGS | -0.097 ± 1.1
ILYSSVVSLSCTLAKGNDYT | 1.77 ± 0.4
SWCCGCFLLCVPRTVSSFVR | 0.167 ± 0.39
SVVWFNTMYLYDWLHKPICI | inactive
YCQSIVFCSI | 3.84 ± 0.086
AINGHDRGLSKLGGRAGESD | 0.589 ± 0.42
HKHSISKCAKEALAALLLFV | -0.319 ± 0.76
